Source: patent EP2164866B1

Target: epidermal growth factor receptor (EGFR) on EGFR positive U87 cells (UniProt P00533)
Assay: FACS saturation binding to EGFR receptor

Row | Half saturation | Bmax (RFU) | Substance
1 | 1.8 nM |  | Anti-EGFR-Angiopep-2 conjugate (EGFR antibody monoclonal 528 cross-linked to Angiopep-2 with SATA)
2 | 1.7 nM | 23.6 RFU | EGFR antibody (monoclonal 528 available from ATCC)
